Measured values reported in US6905854B2, “Mutated penicillin expandase and process for preparing 7-ADCA using the same” (Synmax Biochemical Co., Ltd., priority 2002, dated 2005).
Substitutions are numbered along the chain they refer to. In names and notes the source's numbering stands.

B1: YS16: wild-type expandase (DAOCS, cefE gene) from Streptomyces clavuligerus, parent strain (protein, UniProt P18548 1-311, looked up)
Deacetoxycephalosporin C …: MDTTVPTFSLAELQQGLHQDEFRRCLRDKGLFYLTDCGLTDTELKSAKDLVIDFFEHGSEAEKRAVTSPVPTMRRGFTGLESESTAQITNTGSYSDYSMCYSMGTADNLFPSGDFERIWTQYFDRQYTASRAVAREVLRATGTEPDGGVEAFLDCEPLLRFRYFPQVPEHRSAEEQPLRMAPHYDLSMVTLIQQTPCANGFVSLQAEVGGAFTDLPYRPDAVLVFCGAIATLVTGGQVKAPRHHVAAPRRDQIAGSSRTSSVFFLRPNADFTFSVPLARECGFDVSLDGETATFQDWIGGNYVNIRRTSKA
B2: YS49: mutated penicillin expandase (DAOCS) with substitution L277K (protein, UniProt P18548 1-311, looked up, variant L277K)
Deacetoxycephalosporin C …: B1 Deacetoxycephalosporin C … with L277K
B3: YS11: mutated penicillin expandase (DAOCS) with substitution I305M (protein, UniProt P18548 1-311, looked up, variant I305M)
Deacetoxycephalosporin C …: B1 Deacetoxycephalosporin C … with I305M
B4: YS12: mutated penicillin expandase (DAOCS) with substitution N304K (protein, UniProt P18548 1-311, looked up, variant N304K)
Deacetoxycephalosporin C …: B1 Deacetoxycephalosporin C … with N304K
B5: YS8: mutated penicillin expandase (DAOCS) with substitution I305L (protein, UniProt P18548 1-311, looked up, variant I305L)
Deacetoxycephalosporin C …: B1 Deacetoxycephalosporin C … with I305L

Experiment: Relative activity of purified combined mutants compared to wild type DAOCS
Type: biochemical
Settings: 1 mM penicillin G; activity of wild-type DAOCS as 100%
Description: (§1) For penicillin G, 20 μl of cell extracts was added into a standard 200 μl assay reaction containing 50 mM Mops/pH 7.5, 4 mM ascorbate, 1 mM FeSO4, 4 mM α-ketoglutarate and 7 mM penicillin G, and incubated at 30° C. for 20 minutes. The reaction was stopped by addition of 200 μl of ethanol, followed by a centrifugation at 15,000×g for 5 minutes. The concentration of cephalosporin G in supernatant was analyzed by HPLC with 40 μl injection. The mobile phase was 25 mM potassium phosphate/pH 6.5 with 19% acetonitrile at a flow rate of 1 ml/min. The retention time for cephalosporin G was 8.5 minutes and 12.5 minutes for penicillin G with detection at 215 nm, and the product at 8.5 minutes in DAOCS reaction was confirmed by ESI-LC/MS (positive): [M+H]^+=333. […] The different combinations of the mutated amino acids mentioned above were also constructed by site-directed mutagenesis.
(§2) The standard penicillin G assay was followed for kinetic assay, but 20 μg of purified DAOCS was used and the concentration of α-ketoglutarate was reduced to 1 mM. Kinetic parameters were obtained from triplicate experiments by Hanes-Woolf Plot. For assays using penicillin N as a main substrate, a total volume of 240 μl reaction containing 50 mM Hepes/pH 7.5, 0.4 mM ascorbate, 0.1 mM FeSO4, 0.1 mM α-ketoglutarate, 0.1 mM penicillin N and 0.5 μg of purified DAOCS was incubated at 30° C. for 10 minutes, then the same volume of 10 mM EDTA/pH 7.5 was added, and the mixture was subjected to ultrafiltration with UF 0.5 device (NMWL 5000, Millipore). The filtrate was analyzed by HPLC using 25 mM potassium phosphate/pH 6.5 as a mobile phase. The retention time of DAOC and penicillin N was 12 minutes and 13.5 minutes, respectively The results of kinetic parameters are shown in Table 1, wherein the definition and calculation of the parameters are described in Lehninger et al. Principles of Biochemistry, 2nd Ed. Worth Publishers, New York (1993) which is incorporated herein for reference.
The relative activities of the mutants are determined according to Chin H. S. et al supra with the activity of wild-type DAOCS as 100% and shown in Table 2. The assay was performed with 1 mM penicillin G, and the other conditions were the same as standard assay.

| Molecule | Relative Activities [%] |
| --- | --- |
| B1 | 100 |

Experiment: Kinetic assay of purified DAOCS with penicillin N as main substrate
Type: biochemical
Settings: for penicillin N; 0.5 μg purified DAOCS, 30° C., 10 minutes
Description: (§3) The cell extract (2 ml) of a candidate mutant was applied onto a HiTrap Q column (5 ml) pre-equilibrated with buffer B (50 mM Mops/pH 7.5, 1 mM DTT, 0.4 mM pefabloc SC, and 0.5 μg/ml leupeptin). Then, the column was washed with 20 ml of buffer B, followed by a further wash with 25 ml of buffer B containing 120 mM NaCl, and DAOCS was eluted off with 20 ml of buffer B containing 150 mM NaCl. The DAOCS containing fractions were pooled (10 ml), concentrated by UF 15 device (NMWL 5K; Millipore), and loaded onto a Hiload Superdex 75 (16/60) column pre-equilibrated with buffer B at a flow rate of 1 ml/min.
as §2

| Molecule | kcat [S^−1] |
| --- | --- |
| B2 | 0.220 ± 0.042 |
| B3 | 0.310 ± 0.004 |
| B4 | 0.366 ± 0.023 |
| B5 | 0.284 ± 0.030 |
| B1 | 0.307 ± 0.038 |

Same assay, conditions: for penicillin N; 0.5 μg purified DAOCS, 30° C., 10 minutes; triplicate, Hanes-Woolf Plot

| Molecule | Km [µM] |
| --- | --- |
| B2 | 11 ± 5 |
| B3 | 12 ± 1 |
| B4 | 4 ± 1 |
| B5 | 6 ± 2 |
| B1 | 14 ± 6 |

Same assay, conditions: penicillin N; compared to wild-type YS16

| Molecule | expansion activity on penicillin N, folds higher than wild-type YS16 [folds] |
| --- | --- |
| B4 | 4 |

Experiment: Kinetic assay of purified DAOCS with penicillin G (standard penicillin G assay, HPLC of cephalosporin G)
Type: biochemical
Settings: for penicillin G; 20 μg purified DAOCS, 1 mM α-ketoglutarate, 30° C.
Description: as §1, §3, §2

| Molecule | kcat [S^−1] |
| --- | --- |
| B2 | 0.0514 ± 0.0008 |
| B3 | 0.1452 ± 0.0020 |
| B4 | 0.0564 ± 0.0003 |
| B5 | 0.0759 ± 0.0015 |
| B1 | 0.0453 ± 0.0010 |

Same assay, conditions: for penicillin G; 20 μg purified DAOCS, 1 mM α-ketoglutarate, 30° C.; triplicate, Hanes-Woolf Plot

| Molecule | Km [µM] |
| --- | --- |
| B2 | 720 ± 20 |
| B3 | 750 ± 40 |
| B4 | 220 ± 30 |
| B5 | 660 ± 70 |
| B1 | 2580 ± 220 |

Experiment: DAOCS activity assay with cell extracts
Type: biochemical
Settings: 20 μl cell extract, 7 mM penicillin G, 30° C., 20 minutes
Description: BL21(DE3) transformants were grown overnight in 5 ml of LB medium with 50 μg/ml kanamycin at 30° C. This culture was used to inoculate 100 ml of the same medium and grown at 30° C. for 1 hour. Then 0.1 mM IPTG was added to induce DAOCS indirectly at 30° C. for 4 hours. Cells were harvested, washed with buffer A (50 mM Mops/pH 7.5, 1 mM PMSF, 1 mM DTT, and 0.5 μg/ml leupeptin), lysed by sonication (VCX 750; Sonics & Materials, USA), and centrifuged at 15,000×g for 15 minutes. The supernatant was used as a cell extract.
as §1

| Molecule | expandase activity on penicillin G compared to parent strain YS16 |
| --- | --- |
| B2 | higher expandase activities on penicillin G than the parent strain YS16 |
| B3 | higher expandase activities on penicillin G than the parent strain YS16 |
| B4 | higher expandase activities on penicillin G than the parent strain YS16 |
| B5 | higher expandase activities on penicillin G than the parent strain YS16 |
